Laboratory results published in paper PMC9034101.

Columns and labels:
[1] = molecular target: Cy5 N-terminal-labeled WWP2 (human) (UniProt O00308); test: MST; 10 nM N-terminal Cy5-labeled WWP2, NDP52 (up to 48 uM) or OPTN (up to 60 uM) in two-fold serial dilution; 25 mM Hepes pH 7.8, 250 mM NaCl, 1 mM TCEP, 0.5 mg/ml BSA, 0.05% Tween-20; room temperature; apparent KD, quadratic model
PTEN (Homo sapiens) = PTEN (Homo sapiens) (UniProt P60484); conditions: cited from earlier work
PTEN (Homo sapiens), sequence (P60484 2-403): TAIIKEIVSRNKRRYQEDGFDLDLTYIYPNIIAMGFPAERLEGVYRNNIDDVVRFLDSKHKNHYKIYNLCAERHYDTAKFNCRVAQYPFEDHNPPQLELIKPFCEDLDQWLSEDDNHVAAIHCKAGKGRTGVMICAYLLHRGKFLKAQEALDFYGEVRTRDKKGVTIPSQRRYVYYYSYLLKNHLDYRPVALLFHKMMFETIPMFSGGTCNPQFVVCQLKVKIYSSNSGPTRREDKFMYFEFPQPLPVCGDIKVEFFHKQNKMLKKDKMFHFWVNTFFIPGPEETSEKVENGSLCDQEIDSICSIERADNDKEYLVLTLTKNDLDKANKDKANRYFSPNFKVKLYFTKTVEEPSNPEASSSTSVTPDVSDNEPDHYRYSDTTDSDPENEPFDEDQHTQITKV

WWP2, sequence (O00308 whole entry): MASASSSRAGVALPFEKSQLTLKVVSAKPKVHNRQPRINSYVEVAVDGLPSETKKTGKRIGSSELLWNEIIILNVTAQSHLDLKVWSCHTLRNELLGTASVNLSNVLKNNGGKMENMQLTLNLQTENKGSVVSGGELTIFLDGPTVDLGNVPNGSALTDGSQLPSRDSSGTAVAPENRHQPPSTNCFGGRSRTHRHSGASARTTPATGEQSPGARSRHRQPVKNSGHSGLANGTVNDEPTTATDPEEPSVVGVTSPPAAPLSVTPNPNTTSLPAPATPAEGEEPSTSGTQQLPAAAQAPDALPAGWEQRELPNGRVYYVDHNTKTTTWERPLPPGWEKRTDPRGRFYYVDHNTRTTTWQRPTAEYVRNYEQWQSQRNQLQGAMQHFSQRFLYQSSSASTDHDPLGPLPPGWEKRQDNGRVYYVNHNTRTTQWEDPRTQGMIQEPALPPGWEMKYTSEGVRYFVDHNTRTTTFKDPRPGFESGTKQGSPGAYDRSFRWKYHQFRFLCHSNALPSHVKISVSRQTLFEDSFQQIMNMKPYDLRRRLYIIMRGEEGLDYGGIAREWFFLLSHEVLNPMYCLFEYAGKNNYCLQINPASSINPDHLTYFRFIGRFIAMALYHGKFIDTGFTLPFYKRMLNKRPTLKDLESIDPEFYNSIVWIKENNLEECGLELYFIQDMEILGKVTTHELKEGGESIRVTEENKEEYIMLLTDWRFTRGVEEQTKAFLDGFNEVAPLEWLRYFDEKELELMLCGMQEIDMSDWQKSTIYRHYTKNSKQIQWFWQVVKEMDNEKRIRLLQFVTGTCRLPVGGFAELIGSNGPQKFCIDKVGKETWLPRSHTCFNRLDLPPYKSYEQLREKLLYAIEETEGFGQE
Optineurin, sequence (Q96CV9 whole entry): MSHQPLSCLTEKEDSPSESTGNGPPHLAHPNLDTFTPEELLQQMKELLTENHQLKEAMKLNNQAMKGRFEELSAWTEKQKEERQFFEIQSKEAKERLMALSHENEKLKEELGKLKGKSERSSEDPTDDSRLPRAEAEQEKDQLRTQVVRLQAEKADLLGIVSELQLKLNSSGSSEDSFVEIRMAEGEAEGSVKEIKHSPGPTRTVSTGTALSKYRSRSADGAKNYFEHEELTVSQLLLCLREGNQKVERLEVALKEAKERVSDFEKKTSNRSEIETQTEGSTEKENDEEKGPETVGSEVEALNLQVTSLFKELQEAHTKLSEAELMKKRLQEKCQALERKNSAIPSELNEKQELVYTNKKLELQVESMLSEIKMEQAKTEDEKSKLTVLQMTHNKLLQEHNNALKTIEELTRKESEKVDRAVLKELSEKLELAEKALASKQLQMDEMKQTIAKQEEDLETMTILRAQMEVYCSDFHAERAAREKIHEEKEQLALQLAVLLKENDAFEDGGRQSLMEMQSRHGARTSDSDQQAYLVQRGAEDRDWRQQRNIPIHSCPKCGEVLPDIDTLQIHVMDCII

Substance | Kd [1] [µM] | Kd (PTEN (Homo sapiens)) [µM]
Optineurin (from UniProt Q96CV9 1-577) (natural protein) | 39 | 
WWP2 (from UniProt O00308) |  | 20
